Results as given in patent US20130035289A1, “PHARMACEUTICAL COMPOSITION FOR TREATMENT OF THROMBOSIS-RELATED DISEASES COMPRISING A FRAGMENT OF PROLACTIN (PRL)-GROWTH HORMONE (GH)-PLACENTAL LACTOGEN (PL)-FAMILY PROTEIN” (UNIVERSITE DE LIEGE, priority 2010, published 2013).

Test system: B16F10 tumor
Assay: B16F10 subcutaneous tumor model in wild type and PAI-1 deficient mice
Type: in vivo, mouse
Procedure: Homozygous PAI-1 deficient mice (PAI-1^−/−) and the corresponding WT mice (PAI^+/+) from either sex with a mixed genetic background 87% C57BL/6 and 13% 129 strain were used throughout this study. The animal experiment protocol used was approved by the Institutional Ethics Committee of the University of Liege.
Subconfluent B16-F10 cells were trypsinized, washed, and resuspended in PBS. Cell suspension (10^5 cells in 50 μl PBS) was injected subcutaneously into the right flank of mice experiments were performed on seven mice in each group. 18 to 20 days after tumor cells injection, the mice were killed and their tumors harvested. Tumor growth was assessed by measuring the length and width of each tumor every 1 to 2 days and calculating tumor volume by means of the formula: length×width^2×0.5.
16K-Ad is a defective recombinant E1-E3-deleted adenovirus vector encoding a secreted polypeptide consisting of the first 139 amino acids of PRL. This adenovirus vector was constructed as previously described with the help of the Adeno-X expression system (BD Biosciences, Erembodegem, Belgium). Null-Ad is a control adenovirus carrying an empty expression cassette. A recombinant adenovirus vector bearing WT human PAI-1 (AdCMVPAI-1) and control adenovirus (AddRR5) were generated as previously described.
The 16K hPRL adenovirus and their corresponding control were injected into mouse tail vein 2 days before the subcutaneous injection of tumor cells. A second injection was done 8 days after the first one. The wt PAI-1 adenovirus and their control were injected one day after the 16K hPRL adenovirus injections. 10^9 pfu of adenoviruses were used for each tail vein injection.
HUVECs were grown to 70% confluence on gelatin-coated 35-mm dishes. After incubation for 3 h with 14K GH (160 ng/ml) or 16K PRL (160 ng/ml), the cells were washed with PBS at room temperature and incubated for 1 h at room temperature under non-permeabilization conditions with mouse anti uPA (American Diagnostica INC) diluted 1/100, rabbit anti prolactin (Dako) diluted 1/100, or rabbit anti human GH (home made) diluted 1/100. Endothelial cells were washed in PBS and incubated with FITC horse anti mouse (Vector Laboratory) and Texas red goat anti rabbit antibodies (Jackson Laboratory). For PAI-1 staining, the cells were incubated simultaneously with Histag PAI-1 at 800 uM and 16K PRL or 14K GH. […] Cryostat tumor sections (5 μm thick) were fixed in acetone at −20° C. and in 100% methanol at 4° C. and then incubated with the primary antibodies, rat monoclonal anti PECAM-1, and rabbit polyclonal anti-prolactin (DAKO) for 1 hour at room temperature. The slides were washed and incubated with a Cy3 goat anti-rat and an FITC goat anti-rabbit antibody. After 3 washes in PBS for 10 min, the slides were covered with coverslips in mounting medium (Victor Laboratories Inc.) and analyzed by fluorescence microscopy.

B1: 16K hPRL: 16K N-terminal human prolactin fragment, recombinant, produced and purified from E. coli (protein)
chain: LPICPGGAARCQVTLRDLFDRAVVLSHYIHNLSSEMFSEFDKRYTHGRGFITKAINSCHTSSLATPEDKEQAQQMNQKDFLSLIVSILRSWNEPLYHLVTEVRGMQEAPEAILSKAVEIEEQTKRLLEGMELIVSQVHP
16K PRL localization (immunostaining) (PAI-1-deficient mice): only in the bloodstream | plasma level of 16K PRL at the end of the experiment (PAI-1 deficient mice): remained detectable | anti-tumoral effect (PAI-1 deficient mice with systemic expression of human PAI-1 (adenoviral vector)): restored | tumor growth (PAI-1 deficient mice, 16K PRL expressed via 16K-Ad): did not show a tumor growth reduction | tumor blood vessels (PAI-1−/− mice): appeared normal | plasma level of 16K PRL at the end of the experiment (mice where human PAI-1 expression was restored): considerably dropped off | 16K PRL localization (immunostaining) (wild-type mice and PAI-1−/− mice injected with PAI-1-Ad): observed in tumor tissues | tumor blood vessels (wild-type mice, versus untreated controls): smaller, collapsed blood vessels
